{"source": "patent US11407819B2", "about": "“Compositions and use of a fibrinogen binding motif present in EFB and COA for therapeutics and vaccines against Staphylococcus aureus” (priority 2013, dated 2022)", "key": {"[1]": {"target": "T1, rEfb-O binding to Fg (Homo sapiens, UniProt P02671+P02675+P02679)", "T1 construct": "full-length human Fibrinogen (diluted in PBS, Enzyme research); purchased Enzyme research; host or cells: Efb probe made in E. coli", "T1 sequence (P02671 20-629 limits assumed)": "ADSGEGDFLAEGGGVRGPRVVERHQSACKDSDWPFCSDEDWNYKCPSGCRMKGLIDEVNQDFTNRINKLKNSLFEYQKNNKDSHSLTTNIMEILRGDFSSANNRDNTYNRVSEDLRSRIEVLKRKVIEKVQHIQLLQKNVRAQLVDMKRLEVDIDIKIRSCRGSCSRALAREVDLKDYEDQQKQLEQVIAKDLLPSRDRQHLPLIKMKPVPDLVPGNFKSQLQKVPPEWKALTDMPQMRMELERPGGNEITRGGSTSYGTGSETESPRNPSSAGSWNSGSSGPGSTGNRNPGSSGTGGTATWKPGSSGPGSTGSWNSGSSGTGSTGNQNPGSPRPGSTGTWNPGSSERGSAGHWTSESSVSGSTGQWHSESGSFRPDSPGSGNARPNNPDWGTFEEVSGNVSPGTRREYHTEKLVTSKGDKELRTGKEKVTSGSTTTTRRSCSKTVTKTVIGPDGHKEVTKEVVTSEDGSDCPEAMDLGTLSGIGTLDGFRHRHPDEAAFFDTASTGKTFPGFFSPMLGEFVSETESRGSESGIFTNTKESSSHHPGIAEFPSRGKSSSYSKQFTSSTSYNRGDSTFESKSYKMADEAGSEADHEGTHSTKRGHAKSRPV", "T1 sequence (P02675 31-491)": "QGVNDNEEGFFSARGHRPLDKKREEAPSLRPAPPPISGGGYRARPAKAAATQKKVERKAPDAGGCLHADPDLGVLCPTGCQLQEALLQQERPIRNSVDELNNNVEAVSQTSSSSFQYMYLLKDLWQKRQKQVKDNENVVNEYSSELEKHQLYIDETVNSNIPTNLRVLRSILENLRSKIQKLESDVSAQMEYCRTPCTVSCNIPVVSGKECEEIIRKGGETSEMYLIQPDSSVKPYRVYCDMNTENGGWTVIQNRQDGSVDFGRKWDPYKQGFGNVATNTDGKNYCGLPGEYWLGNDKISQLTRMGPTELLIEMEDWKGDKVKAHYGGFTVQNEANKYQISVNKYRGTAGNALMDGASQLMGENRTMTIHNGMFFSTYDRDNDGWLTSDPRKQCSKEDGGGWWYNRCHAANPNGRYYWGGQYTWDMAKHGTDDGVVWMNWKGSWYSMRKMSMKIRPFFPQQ", "T1 sequence (P02679 27-453)": "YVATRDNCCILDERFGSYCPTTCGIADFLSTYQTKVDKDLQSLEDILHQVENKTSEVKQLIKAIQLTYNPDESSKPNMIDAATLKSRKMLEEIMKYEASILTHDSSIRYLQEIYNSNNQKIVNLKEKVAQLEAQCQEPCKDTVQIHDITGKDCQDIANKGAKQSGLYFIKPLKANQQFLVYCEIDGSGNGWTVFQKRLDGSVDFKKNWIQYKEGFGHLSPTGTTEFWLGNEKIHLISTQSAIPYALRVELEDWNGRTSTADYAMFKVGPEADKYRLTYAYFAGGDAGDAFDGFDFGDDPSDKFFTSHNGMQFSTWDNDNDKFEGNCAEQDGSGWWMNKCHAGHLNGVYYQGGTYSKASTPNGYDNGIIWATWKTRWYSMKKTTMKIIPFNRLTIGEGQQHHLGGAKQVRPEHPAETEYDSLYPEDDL", "assay": "Competition ELISA, peptide inhibition of rEfb-O binding to immobilized Fg", "details": "rEfb-O 5 nM; peptides 2 μM or increasing concentrations", "protocol": "FIG. 10A is a table of the Efb-O variant peptides were synthesized where each residue in the sequence is individually replaced with Ala (or Ser when the native a.a. is Ala). FIG. 10B is a plot of the Efb-O variant peptides inhibit rEfb-O (5 nM) binding to immobilized Fg in solid phase assay. Wells were coated with 0.25 μg/well Fg. Peptides (2 μM) were mixed with rEfb-O proteins (5 nM) and incubated in the Fg wells for 1 hour. FIG. 10C is a plot showing selected peptides inhibit rEfb-O binding to immobilized Fg. Increasing concentrations of Efb peptides were incubated with 5 nM rEfb-O in Fg-coated microtiter wells. To identify the residues in Efb-O that are important for Fg binding an Alanine scanning approach was used. A panel of Efb-O variant peptides were synthesized where each residue in the sequence is individually replaced with Ala (or Ser when the native a.a. is Ala; FIG. 10A). The individual peptides are then examined for their ability to compete with the binding of rEfb-O (5 nM) to immobilized Fg. […]\nIn the case of peptide inhibition assay, various concentration of Efb or Coa peptides were mixed with a fixed concentration of Coa-GST or Efb-GST fusion proteins (5-10 nM) in TBS and the bound GST fusion proteins were detected through incubation with HRP-conjugated rabbit anti-GST polyclonal antibodies (5000× dilution). […]"}, "[2]": {"target": "T2, rCoa binding to Fg (Homo sapiens, UniProt P02671+P02675+P02679)", "T2 construct": "full-length human Fibrinogen (diluted in PBS, Enzyme research); purchased Enzyme research; host or cells: Coa probe made in E. coli BL21", "T2 sequence (P02671 20-629 limits assumed)": "T1 sequence (P02671 20-629 limits assumed)", "T2 sequence (P02675 31-491)": "T1 sequence (P02675 31-491)", "T2 sequence (P02679 27-453)": "T1 sequence (P02679 27-453)", "assay": "Competition ELISA, peptide inhibition of recombinant Coa binding to Fg", "details": "increasing concentrations of peptide; 4 nM GST-tagged Coa proteins", "text": "FIG. 9A illustrates a schematic presentation of recombinant Coa fragments generated in this study. Coa is depicted in its secreted form Coa (27-636) lacking the signal peptide (1-26). The N-terminus of Coa (Coa-N; Coa 27-310) constitutes D1D2 prothrombin binding domain. The C-terminus of Coa (Coa-C; Coa 311-636) includes the central region and the tandem-repeat region. The Coa-C further divides into two parts, the Coa-R is corresponding to the tandem-repeat region covering residue 506-636, and the Coa-F fragment covering residues 311-505. Recombinant protein Coa-R0 corresponds to the residues 474-506 residues. […] FIG. 9B illustrates an ELISA assays of GST-tagged Coa fragments binding to immobilized Fg. Open circle, Coa (Coa 27-636); open upright triangle, Coa-N(Coa 27-310); open inverted triangle, Coa-C(Coa 311-636); closed circle, Coa-R (Coa 506-636); closed diamond, Coa-F (Coa 311-505). […] FIG. 9D illustrates the effect of peptide Efb-O on inhibition of rCoa binding to Fg. Increasing concentration of Efb-O were incubated with 4 nM GST-tagged Coa proteins in Fg-coated microtiter wells. Control, BSA.\n[…] All proteins were diluted in TBS containing 1% BSA and 0.05% TWEEN® 20 and the ELISA assays were carried out at room temperature."}}, "data": [{"substance": "sEfb-O: synthetic peptide mimicking the high affinity Fg-binding motif in Efb (Efb 68-98) (KYIKFKHDYNILEFNDGTFEYGARPQFN)", "values": [{"measurement": "inhibition of rEfb-O binding to immobilized Fg", "setting": "[1]", "result": "efficiently blocked"}, {"measurement": "inhibition of recombinant Coa binding to Fg", "setting": "[2]", "result": "effectively inhibited recombinant Coa binding to Fg"}]}]}
